Values joined by “and” are separate entries in the source; they are usually repeats but may differ in a detail not shown here. Equal values may be shown once.
Conditions: Saccharomyces cerevisiae (strain ATCC 204508 / S288c), Thermal, DSC, reversible: yes
[1] = pH 4.7, 51.4 °C, sodium acetate 50 mM, structure 1YCC
[2] = pH 4.7, sodium acetate 50 mM, structure 1YCC
[3] = pH 6, 57.1 °C, sodium phosphate 100 mM, structure 1YCC
[4] = pH 6, sodium phosphate 100 mM, structure 1YCC
[5] = pH 6, sodium phosphate 10 mM, structure 1YCC

Cytochrome c isoform 1 T75E|T102A|C108T, P00044 T75E T102A C108T, sequence (P00044 whole entry T75E/T102A/C108T, canonical isoform): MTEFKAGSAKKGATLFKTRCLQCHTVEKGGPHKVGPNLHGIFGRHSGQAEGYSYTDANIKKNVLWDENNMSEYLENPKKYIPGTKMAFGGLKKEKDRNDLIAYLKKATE
Cytochrome c isoform 1 T75E|C108T, P00044 T75E C108T, sequence (P00044 whole entry T75E/C108T, canonical isoform): as the sequence (P00044 whole entry T75E/T102A/C108T, canonical isoform) above, with A102T counted along it
Cytochrome c isoform 1 T102A|C108T, P00044 T102A C108T, sequence (P00044 whole entry T102A/C108T, canonical isoform): as the sequence (P00044 whole entry T75E/T102A/C108T, canonical isoform) above, with E75T counted along it
Cytochrome c isoform 1 C108T, P00044, sequence (P00044 whole entry C108T, canonical isoform): as the sequence (P00044 whole entry T75E/T102A/C108T, canonical isoform) above, with E75T, A102T counted along it
Cytochrome c isoform 1 wild type, P00044, sequence (P00044 whole entry, canonical isoform): as the sequence (P00044 whole entry T75E/T102A/C108T, canonical isoform) above, with E75T, A102T, T108C counted along it

Substance	unfolding enthalpy (calorimetric) [1]	heat capacity change of unfolding [2] [kcal/mol/K]	unfolding enthalpy (calorimetric) [2]	unfolding enthalpy (van 't Hoff) [2]	unfolding enthalpy (calorimetric) [3]	heat capacity change of unfolding [4] [kcal/mol/K]	unfolding enthalpy (calorimetric) [4]	unfolding enthalpy (van 't Hoff) [4]	heat capacity change of unfolding [5] [kcal/mol/K]	unfolding enthalpy (calorimetric) [5]	unfolding enthalpy (van 't Hoff) [5]	further results
Cytochrome c isoform 1 T75E|T102A|C108T, P00044 T75E T102A C108T	75 kcal/mol and 77 kcal/mol	1.7	85 kcal/mol and 130 kcal/mol	102 kcal/mol and 169 kcal/mol	83 kcal/mol and 92 kcal/mol	1.7	92 kcal/mol and 143 kcal/mol	120 kcal/mol and 157 kcal/mol	–	–	–	–
Cytochrome c isoform 1 wild type, P00044	–	–	–	–	–	–	–	–	–	–	–	unfolding enthalpy (calorimetric) (pH 4.7, 51.4 °C, sodium acetate 50 mM): 42 kcal/mol and 49 kcal/mol; heat capacity change of unfolding (pH 4.7, sodium acetate 50 mM): 1.4 kcal/mol/K; unfolding enthalpy (calorimetric) (pH 4.7, sodium acetate 50 mM): 40 kcal/mol; unfolding enthalpy (van 't Hoff) (pH 4.7, sodium acetate 50 mM): 52 kcal/mol; unfolding enthalpy (calorimetric) (pH 6, 57.1 °C, sodium phosphate 100 mM): 78 kcal/mol and 62 kcal/mol; Tm (pH 6, sodium phosphate 10 mM): 81.4 °C; heat capacity change of unfolding (pH 6, sodium phosphate 100 mM): 1.4 kcal/mol/K; unfolding enthalpy (calorimetric) (pH 6, sodium phosphate 100 mM): 78 kcal/mol and 98 kcal/mol; unfolding enthalpy (van 't Hoff) (pH 6, sodium phosphate 100 mM): 101 kcal/mol and 127 kcal/mol
Cytochrome c isoform 1 T75E|C108T, P00044 T75E C108T	80 kcal/mol	1.5	89 kcal/mol and 125 kcal/mol	97.9 kcal/mol and 138 kcal/mol	90 kcal/mol and 91 kcal/mol	1.5	135 kcal/mol	149 kcal/mol	1.5	98 kcal/mol	108 kcal/mol	Tm [5]: 62.6 °C; Tm [4]: 86.3 °C
Cytochrome c isoform 1 C108T, P00044	65 kcal/mol and 68 kcal/mol	1.7	69 kcal/mol and 116 kcal/mol	82.8 kcal/mol and 151 kcal/mol	81 kcal/mol and 75 kcal/mol	–	–	–	1.7	86 kcal/mol and 122 kcal/mol	95 kcal/mol and 146 kcal/mol	–
Cytochrome c isoform 1 T102A|C108T, P00044 T102A C108T	78 kcal/mol and 67 kcal/mol	1.8	84 kcal/mol and 121 kcal/mol	118 kcal/mol and 133 kcal/mol	84 kcal/mol	1.8	91 kcal/mol and 144 kcal/mol	109 kcal/mol and 144 kcal/mol	–	–	–	–

Reference: FireProtDB (doi:10.1016/s0167-4838(99)00071-0)
